Assay results from the Human Domainome abundance scans (Beltran et al. 2025).

B1: SWI/SNF-related matrix-associated actin-dependent regulator of chromatin subfamily B member 1, residues 181 to 248; numbered along this chain, Q12824 (parent)
chain: SQPEVLVPIRLDMEIDGQKLRDAFTWNMNEKLMTPEMFSEILCDDLDLNPLTFVPAIASAIRQQIESY

Variants of: B1
Assay: abundance fitness (aPCA) (normalised: wild type 0, dead -1); higher = more abundant; growth selection in yeast, the domain comes from the species named
Settings: Homo sapiens

Abundance fitness of substitutions, site by site:
D16: N -0.312; A -0.161; K -0.498; R -0.415; W -0.822; E -0.042; Y -0.546; L -0.5; H -0.247; G -0.027; T -0.801; I -0.861; Q -0.168; F -0.928; S -0.39; V -1.02
Q2: H -0.266; F 0.392; P -0.079
M13: V -0.214; D -0.944; L -0.089; I -0.149; T -0.638; R -0.703; W -0.606; Q -0.717; G -0.718
E14: M -0.065; D 0.026; H -0.202; W -0.96; K -0.334; S -0.071; L -0.299; Y -0.633; P -0.937; G -0.819; R -0.733; V -0.199
S1: Y 0.088; D -0.123; T -0.09; R -0.307; L -0.021; I 0.238; K 0.167; V -0.048; P -0.109; G -0.061; M 0.127; E 0.194; F -0.132; A -0.151; C -0.095; W -0.435
R21: P -0.357; E -0.026; I 0.081; S -0.054; Y -0.227; M -0.073; F -0.17; W -0.368; H 0.164; V 0.115; N 0.098; D 0.133; K 0.011; L -0.204; T 0.009; C 0.096; A -0.076
L11: F -0.215; T -0.057; V -0.624; C -0.848; A -0.792; S -0.751; P -0.578
V7: I -0.049; E -0.868; L -0.322; F -0.547; D -0.749; K -0.906; P -0.753; R -0.998; T -0.77; Q -0.937; A -0.65; G -0.873; W -1; C -0.293; S -0.866; M -0.646
T25: A -0.172; W -0.228; K -0.125; M 0.092; Y -0.326; D 0.021; L -0.134; C -0.08; Q -0.121; P -0.314; R -0.451; G -0.544; S -0.173; V -0.048; H -0.065; F 0.311
P3: L 0.003; R 0.161; Q 0.178; N 0.214; M 0.006; A 0.02; K 0.289; W -0.186; S 0.129; D 0.266; I -0.245; T 0.063; Y 0.002; F 0.05; H -0.097; C -0.297; V -0.146
D12: F -0.73; E -0.078; G -0.264; S -0.474; V -0.646
D22: L 0.001; G -0.418; N 0.005; M -0.277; V -0.037; R 0.284; C 0.035; Q 0.052; T 0.28; H 0.385; W 0.293; S -0.21
R10: N -0.03; L -0.193; W -0.196; Q 0.076; E 0.065; P -0.386; T 0.135; Y 0.138; V -0.024; S -0.444; M -0.273
K19: A -0.32; C 0.128; W -0.7
E4: C -0.32; Q -0.182; M -0.201; S -0.331; W -0.599; G -0.354; A -0.166
